One may read the EC50 as the concentration at which the effect is half-maximal. The Kd is the equilibrium constant for the complex coming apart. By koff is commonly meant the rate constant with which the complex falls apart. As a reminder, the kon is a measure of how fast the partners come together.

The source of these data is patent publication US20140348834A1 (published 2014).

Positions count from the first letter of the chain named.

The target of experiment [1] is T1, human IL-17A (human, UniProt Q16552 24-155).
T1 construct: Biotinylated in the ELISA; also called hIL-17; Hu IL-17A
The experiment can be described thus: ELISA, captured antibody, serially diluted biotin-IL-17 (Example 1.5.1). A general note: In an ELISA, binding on a coated surface is turned into a signal by an enzyme label.
T1 sequence (Q16552 24-155 limits assumed): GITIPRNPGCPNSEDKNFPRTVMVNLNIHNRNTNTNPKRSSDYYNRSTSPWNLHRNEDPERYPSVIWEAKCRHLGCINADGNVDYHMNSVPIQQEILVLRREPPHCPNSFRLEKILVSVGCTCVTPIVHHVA
Description: The following protocol is used to characterize the binding of IL-17 antibodies to human IL-17 by enzyme-linked immunosorbent assay (ELISA). […] 1. Coat ELISA plate with 50 μl per well of Goat anti Mouse IgG-Fc at 2 ug/ml, overnight at 4° C. […] 2. Wash plate 3×PBS/Tween. […] 3. Add 50 μl Mab diluted to 1 μg/ml in PBS/0.1% BSA to appropriate wells. Incubate 1 hr at room temperature (RT). […] 4. Wash plate 3× with PBS/Tween. […] 5. Add 50 μl of serial diluted biotin-IL17 (human IL-17, IL-17A/F, cyno IL-17) to appropriate wells. Incubate 1 hr at room temperature (RT). […] 6. Wash plate 3× with PBS/Tween. […] 7. […] Incubate 1 hr at RT. […] 8. Wash plate 3× with PBS/Tween. […] 9. […] 10. Stop reaction with 50 μl 2N H₂SO₄. […] Read absorbance at 450 nm.

The target in experiment [2] is T2, human IL-17A (human, UniProt Q16552 24-155).
T2 construct: Recombinant; biotinylated in the ELISA; also called hIL-17; hIL17A
The experiment can be described thus: hIL17A ELISA.
T2 sequence (Q16552 24-155): as the sequence (Q16552 24-155 limits assumed) above
Description: The following protocol is used to characterize the binding of IL-17 antibodies to human IL-17 by enzyme-linked immunosorbent assay (ELISA). […] Coat ELISA plate with 50 μl per well of Goat anti Mouse IgG-Fc at 2 ug/ml, overnight at 4° C. […] Wash plate 3×PBS/Tween. […] Add 50 μl Mab diluted to 1 μg/ml in PBS/0.1% BSA to appropriate wells. Incubate 1 hr at room temperature (RT). […] Wash plate 3× with PBS/Tween. […] Add 50 μl of serial diluted biotin-IL17 (human IL-17, IL-17A/F, cyno IL-17) to appropriate wells. Incubate 1 hr at room temperature (RT). […] Wash plate 3× with PBS/Tween. […] Incubate 1 hr at RT. […] Wash plate 3× with PBS/Tween. […] Stop reaction with 50 μl 2N H₂SO₄. […] Read absorbance at 450 nm.

The target of experiment [3] is T2, human IL-17A. The experiment can be described thus: SPR (Biacore 3000), antibody captured by anti-Fc, antigen in solution.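 Further: purified recombinant IL-17 antigens flowed over captured antibodies in HBS-EP buffer, global Langmuir one-to-one fit of association and dissociation phases, KD derived from koff over kon.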 For orientation: In SPR one partner is held on a chip, and binding of the other changes the refractive index at the surface.
Description: (§1) The binding of antibodies to purified recombinant human, cyno, rat, mouse, rabbit IL-17 and human IL-17A/F were determined by surface plasmon resonance-based measurements with a Biacore® 3000 instrument (Biacore® AB, Uppsala, Sweden) using running HBS-EP (10 mM HEPES [pH 7.4], 150 mM NaCl, 3 mM EDTA, and 0.005% surfactant P20) at 25° C. […] Approximately 5000 RU of goat anti-mouse or anti-human IgG (Fcγ) fragment specific polyclonal antibody (Pierce Biotechnology Inc, Rockford, Ill.) diluted in 10 mM sodium acetate (pH 4.5) was directly immobilized across a CM5 research grade biosensor chip using a standard amine coupling kit according to manufacturer's instructions and procedures at 25 μg/ml. Unreacted moieties on the biosensor surface were blocked with ethanolamine. Modified carboxymethyl dextran surface in flowcell 2 and 4 was used as a reaction surface. Unmodified carboxymethyl dextran without goat anti-mouse or anti-human IgG in flow cell 1 and 3 was used as the reference surface. For kinetic analysis, rate equations derived from the 1:1 Langmuir binding model were fitted simultaneously to association and dissociation phases of all eight injections (using global fit analysis) with the use of Biaevaluation 4.0.1 software. Purified antibodies were diluted in HEPES-buffered saline for capture across goat anti-mouse or anti-human IgG specific reaction surfaces. Antibodies to be captured as a ligand (25 μg/ml) were injected over reaction matrices at a flow rate of 5 μl/min. The association and dissociation rate constants, kon (unit M-1s-1) and koff (unit s-1) were determined under a continuous flow rate of 25 μl/min. Rate constants were derived by making kinetic binding measurements at ten different antigen concentrations ranging from 10 nM to 200 nM. The equilibrium dissociation constant (unit M) of the reaction between antibodies and recombinant purified IL-17 antigens was then calculated from the kinetic rate constants by the following formula: KD=koff/kon. Binding was recorded as a function of time and kinetic rate constants are calculated. In this assay, on-rates as fast as 10⁶ M⁻¹ s⁻¹ and off-rates as slow as 10⁻⁶ s⁻¹ can be measured.
Experiment [4] concerns the target T3, human IL-17A/F (human, UniProt Q16552 24-155; Q96PD4 31-163).
T3 construct: Recombinant; biotinylated in the ELISA; also called hIL-17A/F; HuIL-17A/F
The experiment is described as above.
T3 sequence (Q16552 24-155, chain 1 of 2): as the sequence (Q16552 24-155 limits assumed) above
T3 sequence (Q96PD4 31-163, chain 2 of 2): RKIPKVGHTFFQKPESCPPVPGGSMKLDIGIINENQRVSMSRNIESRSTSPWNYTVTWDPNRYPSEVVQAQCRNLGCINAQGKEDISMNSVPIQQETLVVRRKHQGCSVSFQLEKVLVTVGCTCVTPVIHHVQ
Description: as §1

Experiment [5] has as its target T4, cynomolgus monkey IL-17A (cynomolgus monkey, UniProt A0A2K5TTB0 24-155).
T4 construct: biotinylated in the ELISA; also called cyno IL-17; Cyno IL-17A
The description is as above.
Description: as §1

Experiment [6] deals with T5, rat IL-17A (rat, UniProt Q61453 18-150, limits assumed).
T5 construct: Purified recombinant protein in SPR
T5 sequence (looked up): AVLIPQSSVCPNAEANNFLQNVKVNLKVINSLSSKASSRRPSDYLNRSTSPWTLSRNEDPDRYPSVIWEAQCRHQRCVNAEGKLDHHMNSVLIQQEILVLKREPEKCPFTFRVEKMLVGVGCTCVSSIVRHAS
The experiment is described as above.
Description: as §1

For experiment [7], the target named is T6, mouse IL-17A (mouse, UniProt Q62386 26-158, limits assumed).
T6 construct: Purified recombinant protein in SPR; also called MuIL-17A; murine IL-17A
T6 sequence (looked up): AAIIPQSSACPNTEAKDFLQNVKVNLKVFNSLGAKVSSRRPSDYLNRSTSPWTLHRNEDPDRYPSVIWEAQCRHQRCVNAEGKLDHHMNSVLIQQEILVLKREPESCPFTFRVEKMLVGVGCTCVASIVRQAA
Described as above.
Description: as §1

The target in experiment [8] is T1, human IL-17A. In words: cell-based or functional assay.
Experiment [9] concerns the target T7, human IL-17A (human, UniProt Q16552 24-155).
T7 construct: Purified recombinant; biotinylated in the ELISA; also called HuIL-17A; Hu IL-17A
The experiment can be described thus: SPR Biacore, captured binder.
T7 sequence (Q16552 24-155 limits assumed): as the sequence (Q16552 24-155 limits assumed) above
Description: as §1

In experiment [10] the target is T8, human IL-17A/F (human, UniProt Q16552 24-155; Q96PD4 31-163).
T8 construct: Heterodimer of IL-17A and IL-17F, purified recombinant; also called HuIL-17A/F; Hu IL-17A/F
In words: SPR Biacore, captured binder.
T8 sequence (Q16552 24-155 limits assumed, chain 1 of 2): as the sequence (Q16552 24-155 limits assumed) above
T8 sequence (Q96PD4 31-163 limits assumed, chain 2 of 2): as the sequence (Q96PD4 31-163, chain 2 of 2) above
Description: as §1

The target in experiment [11] is cyno IL-17A (cynomolgus monkey, UniProt A0A2K5TTB0 24-155). In words: SPR Biacore, captured binder.
Description: as §1
Experiment [12] addresses human IL-17A/F (human, UniProt Q16552 24-155; Q96PD4 31-163). The experiment can be described thus: cell-based or functional assay.
Target sequence in this assay (Q16552 24-155 limits assumed, chain 1 of 2): as the sequence (Q16552 24-155 limits assumed) above
Target sequence in this assay (Q96PD4 31-163 limits assumed, chain 2 of 2): as the sequence (Q96PD4 31-163, chain 2 of 2) above
Experiment [13] has as its target cynomolgous monkey (cyno) IL-17A (cynomolgus monkey, UniProt A0A2K5TTB0 24-155). In words: cell-based or functional assay.

T4 sequence (A0A2K5TTB0 entry or part of it): as the sequence (Q16552 24-155 limits assumed) above, with T3A, P8S, N34S, I77V, N78K, P104R counted along it
Sequence of cyno IL-17A (A0A2K5TTB0 entry or part of it): as the sequence (Q16552 24-155 limits assumed) above, with T3A, P8S, N34S, I77V, N78K, P104R counted along it
Sequence of cynomolgous monkey (cyno) IL-17A (A0A2K5TTB0 entry or part of it): as the sequence (Q16552 24-155 limits assumed) above, with T3A, P8S, N34S, I77V, N78K, P104R counted along it

B1: IL17-LN-K9-F5 (antibody, V domains shown)
VH: EVQLVQSGAEVKNPGASVKVSCKVSGSRLSDLAMHWVRQAPGKGPEWMGGFDPDEGETVYAQNFQGRVSMTEDTSSDTAYMELNSLRSEDTAVYYCATIRPWLGGAYYFDNWGQGTLVTVSS
VL: ETTLTQSPAFMSATPGDKVNISCKASQDIDDDMNWYQQKPGEAALFIIQEATTLVPGIPPRFSGSGYGTDFTLTVNNIQSEDAAYYFCLQHDSFPYTFGQGTKLEIKR
notes: Fully human monoclonal antibody from mRNA display
Consider B1, for which it took 7.45 nM to reach a half-maximal effect in experiment [1] (EC50).

B2: IL17-h5C5.18 (antibody, V domains shown)
VH: EVQLVQSGAEVKKPGASVKVSCKASGYTFTDYEFHWVRQAPGQGLEWIGVIHPGNGGTAYNQNFRDRATLTADKSTSTAYMELSSLRSEDTAVYYCTRFLTYEGYFDYWGQGTLVTVSS
VL: NIVMTQSPSSLSASVGDRVTITCKASQSVSIDVGWFQQKPGKSPKLLIYHASNRYTGVPSRFSGSGSGTDFTFTISSLQPEDFATYFCQQDYSSPYTFGQGTKLEIKR
notes: IgG; constant regions not specified; also called h5C5.18 (VH.1b-Vk.1c)
For the molecule B2, the EC50 in experiment [2] was 0.03 nM. Besides, the Kd in [3] was 0.521 nM; in [4] it was 1.31 nM; in [5], 0.437 nM; in [6] it was 9.15 nM; in [7], 2.91 nM. The koff was 0.000493 s⁻¹ in experiment [3]; 0.00101 s⁻¹ in experiment [4]; 0.000254 s⁻¹ in experiment [5]; 0.00421 s⁻¹ in experiment [6]; 0.0005 s⁻¹ in experiment [7]. Besides, the kon in [3] is 947000 M⁻¹ s⁻¹; in experiment [4], 772000 M⁻¹ s⁻¹; in experiment [5] it was 581000 M⁻¹ s⁻¹; in experiment [6], 460000 M⁻¹ s⁻¹; in [7], 172000 M⁻¹ s⁻¹.

B3: IL17-B6-46 (antibody, V domains shown)
VH: EVQLVQSGAEVKKPGESLKISCKASGGSFISYGISWVRQAPGQGLEWMGGITHFFGSTDYAQKFQGRVTITADESTTTAYMELSGLTSDDTAVYYCAREPNEFWNGYYTTHDFDSWGQGTTVTVSS
VL: EIVLTQSPDFQSVTPKEKVTITCRASQAIGSELHWYQQKPDQSPKLLIKYASYSVSGVPSRFSGSGSGTDFTLTINGLEAEDAGTYYCHQSASLPYTFGQGTKVDIK
notes: also called pJP253 B6.1 #46VH / pJP254 B6.1 #46Vk
Take B3: the “Potency (pM), IL-17-driven IL-6 production in HS27 cells” value (from here on “Potency (pM)”) in [8] worked out at 59 pM. Besides, it took 0.14 nM to reach a half-maximal effect in experiment [1] (EC50).

B4: IL17-B6-16 (antibody, V domains shown)
VH: EVQLVQSGAEVKMPGSSLKISCKASGGSFRGYGISWVRQAPGQGLEWMGGITPFFGWADYAQKFQGRVTITADESTTTAYMELSGLTSDDTAVYYCARDPNEFWNGYYDTHHFDYWGQGTTVTVSS
VL: B3 VL with A28D, E32A, Y53H, A92D, S93I, Y96H, Q100P
Turning to B4, the Kd worked out at 0.00794 nM in [9], 0.0164 nM in [10] and 0.00483 nM in experiment [11]. Further, the koff in [9] is 3e-05 s⁻¹; in experiment [10], 6.57e-05 s⁻¹; in experiment [11], 4.48e-05 s⁻¹. The kon worked out at 3.78e+06 M⁻¹ s⁻¹ in experiment [9], 4e+06 M⁻¹ s⁻¹ in experiment [10] and 9.27e+06 M⁻¹ s⁻¹ in experiment [11].

B5: IL17-B6-15 (antibody, V domains shown)
VH: B3 VH with I30S, S31G, I34T, S57A, T58V, E99D, T109A, S115Y
VL: B3 VL with A28N, S31A, Y53H, V55I, S91T, A92D, S93R, T97S, Q100P
In experiment [9], B5 yielded a Kd of 0.0073 nM, a koff of 6.02e-05 s⁻¹ and a kon of 8.25e+06 M⁻¹ s⁻¹. In experiment [10], this molecule had an equilibrium dissociation constant (Kd) of 0.00647 nM, a koff of 5.71e-05 s⁻¹ and a kon of 8.82e+06 M⁻¹ s⁻¹. For the same molecule, in experiment [11], the affinity, expressed as Kd, was 0.00401 nM; the koff came out at 5.5e-05 s⁻¹; the kon was determined as 1.37e+07 M⁻¹ s⁻¹.

B6: B6-44 (antibody, V domains shown)
VH: EVQLVQSGAEVKKPGSSVKVSCKASGGSFLSYGFSWVRQAPGQGLEWMGGITPFFGLADYAQKFQGRVTITADESTTTAYMELSGLTSDDTAVYYCARESSEFWNGYYCTQDFDLWGQGTTVTVSS
VL: B3 VL with A28D, E32D, Y53N, V55I, S91T, S93Y, Y96Q, Q100P
B6: the “Potency (pM)” value was 120 pM in [8], 288 pM in [12] and 65 pM in experiment [13].

B7: IL17-B6-18 (antibody, V domains shown)
VH: EVQLVQSGAEVKKPGESLKVSCKASGGRFRTYGISWVRQAPGQGLEWMGGITNFFGWTDYAQKFQGRVTITADESTTTAYMELSGLTSDDTAVYYCARVPNEFWNGYYATDYFDNWGQGTTVTVSS
VL: B3 VL with A28E, S31A, E32S, Y53H, V55A, G77S, G84A, A92D, S93G
notes: also called pJP251 B6.1 #18VH / pJP250 B6.1 #18Vk
Turning to B7, in experiment [1], the EC50 was 0.16 nM.

B8: IL17-B6-29 (antibody, V domains shown)
VH: EVQLVQSGAEVKKPGSSVKVSCKASGGSFISYGYNWVRQAPGQGLEWMGGITPFFGTADYAQKFQGRVTITADESTTTAYMELSGLTSDDTAVYYCAREPNDFWNGYYTTHHFDYWGQGTTVTVSS
VL: DVVMTQSPDFQSVTPKEKVTITCRASQNIGSALHWYQQKPDQSPKLLIKYASQSISGVPSRFSGSGSGTDFTLTINGLEAEDAGTYYCHQSTSLPHTFGQGTKLDIKR
For B8, in [8], the “Potency (pM)” value came to 134 pM. The concentration giving a half-maximal response (EC50) in experiment [1] came to 0.09 nM.

B9: IL17-TN-K7-B6 (antibody, V domains shown)
VH: B8 VH with S16E, V18L, V20I, I30R, Y34I, N35S, F54I, F55L, D59N, T121P
VL: B8 VL
notes: Fully human antibody
In [9], B9 displayed a Kd of 0.84 nM, a koff of 1.47e-05 s⁻¹ and a kon of 17500 M⁻¹ s⁻¹. Besides, in experiment [10], the affinity, expressed as Kd, was 21.9 nM; the koff is 0.000175 s⁻¹; the on-rate (kon) came to 7980 M⁻¹ s⁻¹. In [11], this molecule registered a Kd of 0.992 nM, a koff of 2.51e-05 s⁻¹ and a kon of 25300 M⁻¹ s⁻¹.

B10: IL17-G9-1 (antibody, V domains shown)
VH: EVQLLESGGGVVQPGRSLRLSCAASGFIFSNYGMHWVRQAPGKGLEWVAVISYDGSNKYYADSVKGRFTISRDNSKNTLYLEMNSLRPEDTAVYYCAKVGASGDYYYSYGLDVWGQGTTVTVSS
VL: QSVLTQPPSASGTPGQTVSISCSGSHSNIGRHPVDWYQQVPGAAPKLLMYYGGYRPSGVPDRFSGSQSGTSASLAISGLQSEDEADYYCATWDDRLVGYVFGSGTKVTVLG
As to B10, the “Potency (pM)” value in [8] was found to be 27 pM; in experiment [12] it was 99 pM; in experiment [13] it was 604 pM. Further, the EC50 in experiment [1] was 0.13 nM.

B11: IL17-G9-6 (antibody, V domains shown)
VH: B10 VH with N31D
VL: QSVLTQPPSASGTPGQTVSISCSGRQSNIGNHYVDWYQQVPGAAPKLLIYGDVIRPSGVPDRFSGSQSGTSASLAISGLQSEDEADYYCATWDDWLAGYVFGSGTKVTVLG
For B11, the “Potency (pM)” value in experiment [8] was found to be 884 pM. In experiment [1], this molecule returned an EC50 of 0.12 nM.

B12: IL17-G9-M1 (antibody, V domains shown)
VH: B10 VH with S56G, N57Y, V99L, G100S, A101L, L111F, V113G
VL: QSVLTQPPSASGTPGQTVSISCSGSKSNIGSHYVHWYQQVPGAAPKLLMYDFGQRPSGVPDRFSGSQSGTSASLAISGLQSEDEADYYCGTWDDWLGGYVFGTGTKVTVLG
As to B12, in [8], the “Potency (pM)” value was 88 pM. This molecule registered an EC50 in experiment [1] of 0.08 nM.

B13: IL17-G9-5 (antibody, V domains shown)
VH: B10 VH with S30R, S52A, N57R, K58Q, A61S, V113L
VL: B11 VL with N31R, I49M, G51Y, V53S, A90G, T91M, W95S
B13: in experiment [8], the “Potency (pM)” value turned out to be 310 pM. The same molecule yielded an EC50 in experiment [1] of 0.12 nM.

B14: IL17-G9-3 (antibody, V domains shown)
VH: B10 VH
VL: B12 VL with S25R, K26N, Q54L, G65V, G90A, W95M
B14: the “Potency (pM)” value in experiment [8] came to 334 pM. For the same molecule, the response in experiment [1] was half-maximal at 0.05 nM (EC50).
